One data set deals with T1, Peptide-13 (not fully specified).
T1 chain: CRPPGFSPFRK

For a further data set, the target named is T2, Peptide-3.
T2 chain: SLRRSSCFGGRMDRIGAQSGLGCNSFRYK

The target in a further data set is T3, Peptide-5 (not fully specified).
T3 chain: CDRVYIHPFHLK

The target of another data set is T4, Peptide-6a.
T4 chain: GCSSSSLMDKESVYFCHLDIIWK

Another data set addresses T5, Peptide-6b.
T5 chain: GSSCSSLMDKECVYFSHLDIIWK

In the next data set the target is T6, Peptide-8 (not fully specified).
T6 chain: CQLYENKPRRPYILK

B1: C13 (protein)
chain: YPYDVPDYAYPYDVPDYAYPYDVPDYAGSYDDGICKSSDCIKSAARLIQNMDATTEPCTDFFKYACGGWLKRNVIPETSSRYGNFDILRDELEVVLKDVLQEPKTEDIVAVQKAKALYRSCINESAIDSRGGEPLLKLLPDIYGWPVATENWEQKYGASWTAEKAIAQLNSKYGKKVLINLFVGTDDKNSVNHVIHIDQPRLGLPSGDYYECTGIYKEACTAYVDLMISVARLIRQEERLPIDENQLALEMNKVMELEKEIANATAKPEDRNDPMLLYNKMTLAQIQNNFSLEINGKPFSWLNFTNEIMSTVNISITNEEDVVVYAPEYLTKLKPILTKYSARDLQNLMSWRFIMDLVSSLSRTYKESRNAFRKALYVTTSETATWRRCANYVNGNMMNAVGRLYVEAAFAGESKHVVEDLIAQIREVFIQTLDDLTWMDAETKKRAEEKALAIKERIGYPDDIVSNDNKLNNEYLELNYKEDEYFENIIQNLKFSQSKQLKKLREKVDKDEWISGAAVVNAFYSSGRNQIVFPAGILQPPFFSAQQSNSLNYGGIGMVIGHEITHGFMDNGRNFNKDVDLVDWWTQQSASNFKEQSQCMVYQYGNFSWDLAGGQHLNGINTLGENIADNGGLGQAYRAYQNYIKKNGEEKLLPGLDLNHKQLFFLNFAQVWCGTYRPEYAVNSIKTDVHSPKNFRIIGTLQNSAEFSEAFHCRKNSYMNPEKKCRVW
On to B1, for which the kapp ratio vs G399V/G714K (B1) with Peptide-1 turned out to be 1.78 fold; with Peptide-13 it was 0.39 fold; with Peptide-2, 1.56 fold; in the data set with Peptide-3 it was 0.24 fold; with Peptide-4 it was 0.91 fold; in the data set with Peptide-5, 0.18 fold. Besides, the kapp ratio vs G399V/G714K (B1) stood at 0.3 fold in the data set with Peptide-6a, 0.18 fold with Peptide-6b, 0.36 fold in the data set with Peptide-7 and 0.35 fold with Peptide-8.

B2: C16 (protein)
chain: YPYDVPDYAYPYDVPDYAYPYDVPDYAGSYDDGICKSSDCIKSAARLIQNMDATTEPCTDFFKYACGGWLKRNVIPETSSRYGNFDILRDELEVVLKDVLQEPKTEDIVAVQKAKALYRSCINESAIDSRGGEPLLKLLPDIYGWPVATENWEQKYGASWTAEKAIAQLNSKYGKKVLINLFVGTDDKNSVNHVIHIDQPRLGLPSGDYYECTGIYKEACTAYVDFMISVARLIRQEERLPIDENQLALEMNKVMELEKEIANATAKPEDRNDPMLLYNKMTLAQIQNNFSLEINGKPFSWLNFTNEIMSTVNISITNEEDVVVYAPEYLTKLKPILTKYSARDLQNLMSWRFIMDLVSSLSRTYKESRNAFRKALYVTTSETATWRRCANYVNGNMMNAVGRLYVEAAFAGESKHVVEDLIAQIREVFIQTLDDLTWMDAETKKRAEEKALAIKERIGYPDDIVSNDNKLNNEYLELNYKEDEYFENIIQNLKFSQSKQLKKLREKVDKDEWISGAAVVNAFYSSGRNQIVFPAGILQPPFFSAQQSNSLNYGGIGMVIGHEITHGFMDNVRNPNKDWDLVDWWTQQSASNFKEQSQCMVYQYGNFSWDLAGGQHLNGINTLGENIADNGGLGQAYRAYQNYIKKNGEEKLLPGLDLNHKQLFFLNFAQVWCGTYRPEYAVNSIKTDVHSPKNFRIIGTLQNSAEFSEAFHCRKNSYMNPEKKCRVW
On to B2, for which the kapp ratio vs G399V/G714K (B1) with Peptide-1 was 2.24 fold; in the data set with Peptide-13, 0.44 fold; with Peptide-2 it was 2.19 fold; with Peptide-3, 0.24 fold; in the data set with Peptide-4, 0.7 fold; with Peptide-5, 0.21 fold. Further, the kapp ratio vs G399V/G714K (B1) with Peptide-6a amounted to 0.35 fold; in the data set with Peptide-6b it was 0.23 fold; in the data set with Peptide-7 it was 0.7 fold; in the data set with Peptide-8 it was 0.4 fold.

B3: C14 (protein)
chain: YPYDVPDYAYPYDVPDYAYPYDVPDYAGSYDDGICKSSDCIKSAARLIQNMDATTEPCTDFFKYACGGWLKRNVIPETSSRYGNFDILRDELEVVLKDVLQEPKTEDIVAVQKAKALYRSCINESAIDSRGGEPLLKLLPDIYGWPVATENWEQKYGASWTAEKAIAQLNSKYGKKVLINLFVGTDDKNSVNHVIHIDQPRLGLPSGDYYECTGIYKEACTAYVDLMISVARLIRQEERLPIDENQLALEMNKVMELEKEIANATAKPEDRNDPMLLYNKMTLAQIQNNFSLEINGKPFSWLNFTNEIMSTVNISITNEEDVVVYAPEYLTKLKPILTKYSARDLQNLMSWRFIMDLVSSLSRTYKESRNAFRKALYVTTSETATWRRCANYVNGNMMNAVGRLYVEAAFAGESKHVVEDLIAQIREVFIQTLDDLTWMDAETKKRAEEKALAIKERIGYPDDIVSNDNKLNNEYLELNYKEDEYFENIIQNLKFSQSKQLKKLREKVDKDEWISGAAVVNAFYSSGRNQIVFPAGILQPPFFSAQQSNSLNYGGIGMVIGHEITHGFMDNGRNFNKDDDLVDWWTQQSASNFKEQSQCMVYQYGNFSWDLAGGQHLNGINTLGENIADNGGLGQAYRAYQNYIKKNGEEKLLPGLDLNHKQLFFLNFAQVWCGTYRPEYAVNSIKTDVHSPKNFRIIGTLQNSAEFSEAFHCRKNSYMNPEKKCRVW
Regarding B3, the kapp ratio vs G399V/G714K (B1) in the data set with Peptide-1 turned out to be 1.98 fold; with Peptide-13, 0.71 fold; with Peptide-2, 2.01 fold; with Peptide-3, 0.24 fold; with Peptide-4, 0.72 fold; with Peptide-5, 0.2 fold. In addition, the kapp ratio vs G399V/G714K (B1) turned out to be 0.3 fold with Peptide-6a, 0.24 fold in the data set with Peptide-6b, 0.59 fold in the data set with Peptide-7 and 0.43 fold in the data set with Peptide-8.

B4: C15 (protein)
chain: YPYDVPDYAYPYDVPDYAYPYDVPDYAGSYDDGICKSSDCIKSAARLIQNMDATTEPCTDFFKYACGGWLKRNVIPETSSRYGNFDILRDELEVVLKDVLQEPKTEDIVAVQKAKALYRSCINESAIDSRGGEPLLKLLPDIYGWPVATENWEQKYGASWTAEKAIAQLNSKYGKKVLINLFVGTDDKNSVNHVIHIDQPRLGLPSGDYYECTGIYKEACTAYVDFMISVARLIRQEERLPIDENQLALEMNKVMELEKEIANATAKPEDRNDPMLLYNKMTLAQIQNNFSLEINGKPFSWLNFTNEIMSTVNISITNEEDVVVYAPEYLTKLKPILTKYSARDLQNLMSWRFIMDLVSSLSRTYKESRNAFRKALYVTTSETATWRRCANYVNGNMMNAVGRLYVEAAFAGESKHVVEDLIAQIREVFIQTLDDLTWMDAETKKRAEEKALAIKERIGYPDDIVSNDNKLNNEYLELNYKEDEYFENIIQNLKFSQSKQLKKLREKVDKDEWISGAAVVNAFYSSGRNQIVFPAGILQPPFFSAQQSNSLNYGGIGMVIGHEITHGFMDNVRNFNKDDDLVDWWTQQSASNFKEQSQCMVYQYGNFSWDLAGGQHLNGINTLGENIADNGGLGQAYRAYQNYIKKNGEEKLLPGLDLNHKQLFFLNFAQVWCGTYRPEYAVNSIKTDVHSPKNFRIIGTLQNSAEFSEAFHCRKNSYMNPEKKCRVW
For B4, the kapp ratio vs G399V/G714K (B1) with Peptide-1 was 2.52 fold; in the data set with Peptide-13 it was 0.44 fold; in the data set with Peptide-2, 2.72 fold; with Peptide-3 it was 0.24 fold; in the data set with Peptide-4, 0.7 fold; with Peptide-5 it was 0.25 fold. Also, the kapp ratio vs G399V/G714K (B1) was found to be 0.46 fold with Peptide-6a, 0.24 fold with Peptide-6b, 0.75 fold in the data set with Peptide-7 and 0.52 fold with Peptide-8.

B5: C17 (protein)
chain: YPYDVPDYAYPYDVPDYAYPYDVPDYAGSYDDGICKSSDCIKSAARLIQNMDATTEPCTDFFKYACGGWLKRNVIPETSSRYGNFDILRDELEVVLKDVLQEPKTEDIVAVQKAKALYRSCINESAIDSRGGEPLLKLLPDIYGWPVATENWEQKYGASWTAEKAIAQLNSKYGKKVLINLFVGTDDKNSVNHVIHIDQPRLGLPSGDYYECTGIYKEACTAYVDFMISVARLIRQEERLPIDENQLALEMNKVMELEKEIANATAKPEDRNDPMLLYNKMTLAQIQNNFSLEINGKPFSWLNFTNEIMSTVNISITNEEDVVVYAPEYLTKLKPILTKYSARDLQNLMSWRFIMDLVSSLSRTYKESRNAFRKALYVTTSETATWRRCANYVNGNMMNAVGRLYVEAAFAGESKHVVEDLIAQIREVFIQTLDDLTWMDAETKKRAEEKALAIKERIGYPDDIVSNDNKLNNEYLELNYKEDEYFENIIQNLKFSQSKQLKKLREKVDKDEWISGAAVVNAFYSSGRNQIVFPAGILQPPFFSAQQSNSLNYGGIGMVIGHEITHGFMDNVRNPNKDGDLVDWWTQQSASNFKEQSQCMVYQYGNFSWDLAGGQHLNGINTLGENIADNGGLGQAYRAYQNYIKKNGEEKLLPGLDLNHKQLFFLNFAQVWCGTYRPEYAVNSIKTDVHSPKNFRIIGTLQNSAEFSEAFHCRKNSYMNPEKKCRVW
As for B5, the kapp ratio vs G399V/G714K (B1) is 3.28 fold with Peptide-1; 0.49 fold with Peptide-13; 3.13 fold with Peptide-2; 0.24 fold with Peptide-3; 0.7 fold in the data set with Peptide-4; 0.27 fold with Peptide-5. Also, the kapp ratio vs G399V/G714K (B1) amounted to 0.47 fold with Peptide-6a, 0.33 fold with Peptide-6b, 0.57 fold with Peptide-7 and 0.33 fold with Peptide-8.

(Values after patent US20120237496.)
